Values belong to the molecule of their own block, whether it stands above or below them.
Legend:
[1] = target: recombinant human CD22-Fc (Homo sapiens, UniProt P20273); assay: Surface expression of CD22 CAR in primary human T-cells (Protein-L, rhCD22-Fc); type: cell-based; conditions: day 10, flow cytometry
Method: Primary human T-cells were activated with anti-CD3/antiCD28 stimulatory beads on day 0, followed by lentiviral transduction of specified CAR constructs on day 1. Cells were expanded in vitro until day, 10 at which point they were analyzed by flow cytometry for surface expression of CAR. Two different approaches were utilized to determine surface expression of CAR: Protein-L-biotin followed by streptavidin-PE, and recombinant human CD22-Fc followed by anti-Fc-alexafluor 488. […] CD22 CAR m971 served as a positive control for binding both Protein-L and hrCD22-Fc, and Isotype CAR with no specificity (anti-gH) served as a positive control for Protein-L. T cells expressing no CAR were used as a negative control.

[2] = tested on: Raji, SEM, K562-hCD22, Daudi, and Nalm6; assay: Primary T-cell tumor target killing assay; type: cell-based, human; conditions: CD22 expressing luciferase target cell lines
From the text: Primary T-cells activated and transduced as described above were mixed with target cell lines stably expressing luciferase at the ratios indicated (FIG. 20A-20F). […] Untransduced T-cells (UTD) lacked the ability to kill target cell lines.

- surface expression of CAR [1]: positive surface expression
B1: hCD22-10: human CD22 CAR (protein)
scFv: EVQLQQSGPGLVKPSQTLSLTCAISGDSVLSNSDTWNWIRQSPSRGLEWLGRTYHRSTWYDDYASSVRGRVSINVDTSKNQYSLQLNAVTPEDTGVYYCARDRLQDGNSWSDAFDVWGQGTMVTVSSGGGGSGGGGSGGGGSQSALTQPASVSGSPGQSITISCTGTSSDVGGYNYVSWYQQHPGKAPKLMIYDVSNRPSGVSNRFSGSKSGNTASLTISGLQAEDEADYYCSSYTSSSTLVYVFGTGTKVTVL
- target cell killing [2]: dose-dependent target cell killing

- surface expression of CAR [1]: positive surface expression
B2: hCD22-2: human CD22 CAR (protein)
scFv: EVQLQQSGPGLVKPSQTLSLTCAISGDSVSSNSAAWNWIRQSPSRGLEWLGRTYYRSKWYNDYAVSVKSRITINPDTSKNQFSLQLNSVTPEDTAVYYCARDLGWIAVAGTFDYWGQGTLVTVSSGGGGSGGGGSGGGGSQSALTQPASVSGSPGQSITISCTGTSSDVGGYNYVSWYQQHPGKAPKLMIYDVSKRPSGVSNRFSGSKSGNTASLTISGLQAEDEADYYCSSYTSSSLNHVFGTGTKVTVL
- target cell killing [2]: dose-dependent target cell killing

- surface expression of CAR [1]: positive surface expression
B3: hCD22-31: human CD22 CAR (protein)
scFv: QVQLVQSGAEVKKPGASVKVSCKASGYTFTSYDINWVRQATGQGLEWMGWMNPNSGNTGYAQKFQGRVTMTRNTSISTAYMELSSLRSEDTAVYYCARGDSNYWSYYGMDVWGQGTLVTVSSGGGGSGGGGSGGGGSGGGGSQSVLTQPRSVSGSPGQSVTISCTGTSSDVGGYNYVSWYQQHPGEAPKLIIYDADKRPSGISNRFSSGKSGNTASLTISGLQVEDEADYYCCSYAGGSTWVFGGGTKVTVL
- target cell killing [2]: dose-dependent target cell killing

- surface expression of CAR [1]: positive surface expression
B4: hCD22-5: human CD22 CAR (protein)
scFv: EVQLVESGGGLVQPGRSLRLSCAASGFTFDDYAMHWVRQAPGKGLEWVSGISWNSGSIGYADSVKGRFTISRDNAKNSLYLQMNSLRAEDTALYYCAKDKGGGYYDFWSGSDYWGQGTLVTVSSGGGGSGGGGSGGGGSSSELTQDPAVSVALGQTVRITCQGDSLRSYYASWYQQKPGQAPVLVIYGKNNRPSGIPDRFSGSSSGNTASLTITGAQAEDEADYYCNSRDSSGWVFGGGTKLTVL
- target cell killing [2]: dose-dependent target cell killing

Reference: patent publication US10253086B2, “CD20 therapies, CD22 therapies, and combination therapies with a CD19 chimeric antigen receptor (CAR)-expressing cell” (Novartis AG, priority 2015, dated 2019)
